What is called EC50 is the concentration at which the effect is half-maximal. A word on the Kd: it is a measure of binding affinity in units of concentration. As usually defined, the koff is the rate constant with which the complex falls apart. In general, kon refers to the second-order rate constant of association.

Results on two molecules are retold here after patent US20250376539A1 (KIRA PHARMACEUTICALS SUZHOU, published 2025).

The target of experiment [1] is T1, recombinant human C2a, C-terminal 6His-tag, made in house (CHO cell expression) (human, UniProt P06681 244-752).
T1 sequence: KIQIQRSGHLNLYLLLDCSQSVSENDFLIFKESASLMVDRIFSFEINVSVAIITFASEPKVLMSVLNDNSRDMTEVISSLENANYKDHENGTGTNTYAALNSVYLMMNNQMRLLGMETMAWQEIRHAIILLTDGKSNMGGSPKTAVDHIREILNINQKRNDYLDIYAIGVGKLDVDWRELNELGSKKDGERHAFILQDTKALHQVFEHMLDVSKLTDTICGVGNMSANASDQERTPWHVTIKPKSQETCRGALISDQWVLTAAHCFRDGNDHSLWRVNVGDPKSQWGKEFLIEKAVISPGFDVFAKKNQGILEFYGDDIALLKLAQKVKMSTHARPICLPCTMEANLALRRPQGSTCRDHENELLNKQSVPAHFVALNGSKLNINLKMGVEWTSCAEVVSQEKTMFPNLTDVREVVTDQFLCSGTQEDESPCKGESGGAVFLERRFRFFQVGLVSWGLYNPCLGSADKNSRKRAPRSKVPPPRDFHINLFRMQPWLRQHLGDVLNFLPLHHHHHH
As to the kind of experiment: ELISA. On the technique in general: ELISA stands for enzyme-linked immunosorbent assay.

Experiment [2] addresses T2, recombinant cyno C2a, C-terminal 6His-tag, made in house (CHO cell expression) (cynomolgus monkey, UniProt P06681 244-752 (human entry)).
T2 chain: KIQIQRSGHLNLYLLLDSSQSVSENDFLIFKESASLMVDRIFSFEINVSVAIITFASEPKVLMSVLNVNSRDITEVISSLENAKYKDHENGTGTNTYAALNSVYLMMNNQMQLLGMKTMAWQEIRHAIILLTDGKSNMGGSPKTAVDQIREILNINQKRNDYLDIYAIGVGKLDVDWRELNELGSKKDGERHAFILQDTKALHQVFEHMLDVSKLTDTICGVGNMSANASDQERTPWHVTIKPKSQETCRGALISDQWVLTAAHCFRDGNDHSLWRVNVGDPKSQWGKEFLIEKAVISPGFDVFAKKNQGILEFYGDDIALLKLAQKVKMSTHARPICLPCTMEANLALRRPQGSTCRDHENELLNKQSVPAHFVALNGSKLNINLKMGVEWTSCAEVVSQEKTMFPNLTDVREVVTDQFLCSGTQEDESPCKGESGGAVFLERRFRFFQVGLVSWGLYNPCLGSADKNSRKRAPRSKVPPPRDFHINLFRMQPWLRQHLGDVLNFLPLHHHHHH
As to the kind of experiment: ELISA.

Experiment [3] has as its target T1, recombinant human C2a, C-terminal …. The experiment is described as follows: binding kinetics (BLI presumed).
Experiment [4] has as its target T2, recombinant cyno C2a, C-terminal …. The experiment is described as follows: binding kinetics (BLI presumed).
The target of experiment [5] is T3, recombinant human complement C2 (NP_000054.2), C-terminal 6His-tag, made in house (CHO cell expression) (human, UniProt P06681 21-752).
T3 construct: a linker before the tag is not described; also called human C2; Human C2
T3 sequence: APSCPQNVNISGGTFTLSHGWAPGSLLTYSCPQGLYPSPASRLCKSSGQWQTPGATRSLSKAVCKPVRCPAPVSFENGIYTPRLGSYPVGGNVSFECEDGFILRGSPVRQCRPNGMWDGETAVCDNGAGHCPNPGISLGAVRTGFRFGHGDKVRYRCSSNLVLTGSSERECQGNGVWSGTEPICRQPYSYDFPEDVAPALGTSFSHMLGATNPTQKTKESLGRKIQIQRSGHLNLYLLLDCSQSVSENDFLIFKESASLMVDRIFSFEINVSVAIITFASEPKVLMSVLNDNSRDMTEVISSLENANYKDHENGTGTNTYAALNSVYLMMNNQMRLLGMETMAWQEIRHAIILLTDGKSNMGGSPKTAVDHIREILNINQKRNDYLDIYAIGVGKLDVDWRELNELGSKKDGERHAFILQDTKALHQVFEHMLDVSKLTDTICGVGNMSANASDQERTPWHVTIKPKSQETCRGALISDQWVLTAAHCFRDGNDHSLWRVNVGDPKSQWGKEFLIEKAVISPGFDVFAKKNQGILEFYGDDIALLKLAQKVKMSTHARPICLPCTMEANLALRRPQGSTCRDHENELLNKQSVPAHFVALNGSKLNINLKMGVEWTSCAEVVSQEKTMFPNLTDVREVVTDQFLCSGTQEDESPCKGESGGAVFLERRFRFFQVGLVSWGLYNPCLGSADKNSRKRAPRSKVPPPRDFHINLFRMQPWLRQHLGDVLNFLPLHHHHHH
As to the kind of experiment: BLI (Gator); ratio of dissociation at pH 5.8 to pH 7.4. How it is done: (§1) The histidine mutant constructs in Table 4 were tested for their pH-dependent dissociation from human C2. Probe-immobilized anti-C2 antibodies were incubated with C2 at pH 7.4 for 600s, followed by a 600s dissociation period in K Buffer at pH 7.4 or pH 5.8. The data were processed and analyzed by the Gator evaluation software.

The target of experiment [6] is T1, recombinant human C2a, C-terminal …. As to the kind of experiment: ELISA on human C2a, OD450nm against log Ab conc. (nmol/L).
For experiment [7], the target named is T3, recombinant human complement C2 …. The experiment is described as follows: BLI (Gator), antibody on probe; 600 s association at pH 7.4, 600 s dissociation at pH 5.8. The procedure:
as §1

B1: anti-C2 antibody 69.44 (antibody, IgG4, V domains shown)
VH: QVQLVQSGAEVKKPGASVKVSCKASGYSFTTYYMYWVRQAPGQGLEWMGIITPSGGSTTYAQKFQDRVTMTRDASTTTVYMELSSLRSEDTAVYYCARGYEGSYGFDHWGQGTLVTVSS
VL: SYELTQPPSVSLSPGQTASITCSGDKLGNKYTCWYQQKPGQSPVLVIYQDNKRPSGIPERFSGSNSGNTATLTISGTQAMDEADYYCQTWDSSTAVFGGGTKLTVL
notes: Recombinant
With B1, the concentration giving a half-maximal response (EC50) was 0.117 nM in experiment [1] and 0.119 nM in experiment [2]. Moreover, the dissociation constant (Kd) in experiment [3] is 0.347 nM; in experiment [4], 0.376 nM. Besides, the koff in experiment [3] came to 6.68e-05 s⁻¹; in experiment [4], 8.79e-05 s⁻¹. Also, the kon was found to be 193000 M⁻¹ s⁻¹ in experiment [3] and 234000 M⁻¹ s⁻¹ in experiment [4].

B2: anti-C2 antibody 3.2 (antibody, IgG4, V domains shown)
VH: EVQLLESGGGLVQPGGSLRLSCAASGFTFRHYAMSWVRQAPGKGLEWVSLISGSGASTFYADSVKGRFTISRDNSENMLYLQMNSLRAEDTAVYYCAKDSLAVAGSEYFQHWGQGTLVTVSS
VL: SYVLTQAPSVSVAPGQTARITCGGNYFGGKSVHWYQQRPGQAPVLVVYDDSDRPSGIPERFSGSKSGNTATLAISRVEAGDEAAYYCQVYDTSSDHWVFGGGTKLTVL
notes: Recombinant; also called WT; "WT" 3.2
For B2, in experiment [5], the “Fold dissociation pH 5.8/pH 7.4” value was 2.3 fold. For the same molecule, the binding result in experiment [6] is given as “no binding (tested: 100 nmol/L)”. The “Dissociation (%) pH 5.8” value in experiment [7] was 8.2%.
